Measurements published in PMC12373997, “Conserved function of the HAUS6 calponin homology domain in anchoring augmin for microtubule branching” (Nature Communications, 2025).

Target: T1, Taxol-stabilized microtubules polymerised from purified porcine brain tubulin (porcine, UniProt P02550 1-451; P02554 1-439)
T1 construct: P81947 was used only for the MD model; Q6B856 was used only for the MD model; Polymer of α/β-tubulin heterodimers (13- and 14-protofilament MTs in cryo-EM); brain tubulin is probably a mix of isotypes; Concentrations are α/β-tubulin heterodimer molarity; also called MTs; MT; source: tubulin purified from porcine brain; polymerised in vitro with GTP and paclitaxel
Experiment: co-sedimentation; tubulin co-sedimentation: taxol-stabilized MTs (varied, α/β-tubulin heterodimer molarity) with 1 µM purified N-clamp, 0.25 mg/ml BSA, BRB80-MT buffer (80 mM PIPES, 1 mM MgCl2, 1 mM EGTA, 12.5% glycerol, pH 6.8), 20 min at room temperature, 200,000 g 10 min 27 °C; SDS-PAGE densitometry of pellet; apparent Kd from a quadratic fit
Conditions: both partners purified

B1: D. melanogaster augmin N-clamp with Dgt4 lacking its N-terminal extension (complex)
chain 1: MSDAVDKMLAGMAANRQTMNRQLAKIDEIMERSNNTLLHIESNSKAFSQNVALSETQKMYNLRPEAEMTLSKILENFKLLMSSSDQREETYSALEGCLAYRHRVEHLGSSVRKLVALYDTVGQMKNSQEEQYASEDSP
chain 2: MDRTIIAPWKAEEKEQSEKLHRKLQGLALVHPLPDELRKLIAWDMFLKPNQVAFVHVMHYLFRLLDPAEFKRRFFWPITDKKSEANFRSSTVEYLKHLNEKHQLHWANIKSYLVVMPGGMRFINFLLEFVGFVIQELIKQREKSLGLEAGTPNVSAKVMARQNAVMKEYASSYVVNLEENTALLRDKTQKIRRLMADLSADMGVPEEQLADDGFLDEFEATAALGVERVITQPTERKFDLEASLCGLKEAIDLFQVKQAENNQSKEAVEKALRGMRVLFD
chain 3: METNVDFSSISSKLYRKYAQHVRNLKDVCVSKTVMKPGAFFDSLQQMMEEEAAATTPPRDLSSVADYAELFKTLEEYPANLQKMPKKRELQRTNSTLLRGADESVAMGINTSNVSLSLTRLEEQRSAVDVYNDFKGFQRKLAKIYDEAAALDTTESIYKQKLTQLHGFAQQLEKLMPTGGESPPDAFTSEQ
chain 4: MDDIQYLLHLEAMRRFQEDSRNVKRQVEEQVRIWLDAKCEYQRDFGRLARLLKCGALQAAVDAHRVSDVNQVDQAAKDIASLRSKLGS
modifications: Dgt4-deltaNT start (MDDIQY) read from the printed N-del primer, Dgt4 end from 9RPD entity 1; Dgt6 from 9RPD entity 2; Msd5 end is estimated from the length of the 9RPD fusion entity; Msd1 is assumed …
Kd: 2900 nM
